Data reported in article PMC11967829, “Nudix Hydrolase 13 Impairs the Initiation of Colorectal Cancer by Inhibiting PKM1 ADP‐Ribosylation” (Advanced Science, 2025).

B1: purified recombinant PKM1 (natural protein)
chain: not shown
notes: PKM1, the M1 splice isoform of pyruvate kinase M (PKM); also called purified PKM1; source: purified recombinant
B2: N13 peptide (mimic peptide of NUDT13 230–252 AA) (peptide, UniProt Q86X67 230-252, looked up)
peptide: GFCDIGESVEETIRREVAEEVGL
notes: The peptide was synthesized conjugated with the membrane-penetrating peptide iRGD (N13-iRGD); also called N13-iRGD; source: synthetic peptide

Tests used:
recombinant human PARP1 = biological target: T1, recombinant human PARP1 (human, UniProt P09874 1-1014); assay: pull-down; in vitro pull-down of PKM1 and PARP1 (Figure 5E); conditions: both partners purified
T1 construct: PARP1 (poly ADP-ribose polymerase 1), human, recombinant; The source is named for the in vitro PARylation assay; source: bought: Sino Biological

[1] = biological target: B1; assay: pull-down; in vitro pull-down of N13 peptide with purified PKM1 or PKM2, Coomassie blue staining (Figure 7D); conditions: both partners purified

T1 sequence (P09874 whole entry): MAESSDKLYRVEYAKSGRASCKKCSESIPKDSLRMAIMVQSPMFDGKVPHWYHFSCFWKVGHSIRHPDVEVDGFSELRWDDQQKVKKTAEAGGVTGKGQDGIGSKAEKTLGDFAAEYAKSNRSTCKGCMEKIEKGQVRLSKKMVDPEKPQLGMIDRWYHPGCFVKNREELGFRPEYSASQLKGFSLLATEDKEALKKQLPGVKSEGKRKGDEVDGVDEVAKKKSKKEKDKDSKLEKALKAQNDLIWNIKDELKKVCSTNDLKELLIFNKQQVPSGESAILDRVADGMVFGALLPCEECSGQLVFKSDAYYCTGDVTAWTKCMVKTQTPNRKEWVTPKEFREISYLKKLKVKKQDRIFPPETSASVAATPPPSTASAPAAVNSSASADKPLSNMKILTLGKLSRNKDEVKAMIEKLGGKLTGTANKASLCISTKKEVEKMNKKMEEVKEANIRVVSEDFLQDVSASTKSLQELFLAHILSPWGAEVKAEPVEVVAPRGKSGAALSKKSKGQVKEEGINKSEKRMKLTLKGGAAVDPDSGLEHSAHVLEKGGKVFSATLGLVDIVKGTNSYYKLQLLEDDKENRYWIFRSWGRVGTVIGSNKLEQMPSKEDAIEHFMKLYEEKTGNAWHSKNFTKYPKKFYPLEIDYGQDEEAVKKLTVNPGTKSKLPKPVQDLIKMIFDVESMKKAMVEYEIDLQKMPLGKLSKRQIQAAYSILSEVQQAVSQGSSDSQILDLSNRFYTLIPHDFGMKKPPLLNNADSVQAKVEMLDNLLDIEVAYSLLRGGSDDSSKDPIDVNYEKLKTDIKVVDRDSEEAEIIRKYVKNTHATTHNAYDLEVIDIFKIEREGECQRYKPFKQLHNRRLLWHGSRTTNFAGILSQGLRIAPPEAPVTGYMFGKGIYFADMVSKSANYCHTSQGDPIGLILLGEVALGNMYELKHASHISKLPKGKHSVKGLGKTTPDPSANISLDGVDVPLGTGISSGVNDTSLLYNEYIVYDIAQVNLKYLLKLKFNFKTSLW

| binding result (recombinant human PARP1) | binding result [1] | Binder |
| --- | --- | --- |
| binds |  | B1 |
|  | binds | B2 |
